Read-outs that look alike come from different tables or passages of the source. Where no end group is shown, it is not given here. The star is where a group is joined. C16 diacid = O=C(O)CCCCCCCCCCCCCCC(=O)*
T1: human GIP receptor (human, UniProt P48546 22-466)
T1 sequence (looked up): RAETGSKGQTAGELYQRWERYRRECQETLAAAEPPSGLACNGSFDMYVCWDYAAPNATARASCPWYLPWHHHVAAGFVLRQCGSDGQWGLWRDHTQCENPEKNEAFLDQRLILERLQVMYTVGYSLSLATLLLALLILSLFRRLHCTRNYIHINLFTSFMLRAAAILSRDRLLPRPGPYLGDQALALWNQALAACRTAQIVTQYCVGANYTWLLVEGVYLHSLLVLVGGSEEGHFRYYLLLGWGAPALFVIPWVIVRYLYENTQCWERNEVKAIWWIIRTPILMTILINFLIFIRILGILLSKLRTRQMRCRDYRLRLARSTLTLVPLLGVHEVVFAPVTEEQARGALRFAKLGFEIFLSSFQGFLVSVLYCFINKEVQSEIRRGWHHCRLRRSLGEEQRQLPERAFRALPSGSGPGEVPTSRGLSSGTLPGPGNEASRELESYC

B1: AT454 (peptide)
peptide: EGTFISDYSIAMDKIK(C16 diacid)QQDFVNWLLAQKGKKNDWKHNIT-OH
modifications: N-terminus assumed
SMILES: CC[C@H](C)[C@H](NC(=O)[C@H](CO)NC(=O)[C@H](Cc1ccc(O)cc1)NC(=O)[C@H](CC(=O)O)NC(=O)[C@H](CO)NC(=O)[C@@H](NC(=O)[C@H](Cc1ccccc1)NC(=O)[C@@H](NC(=O)CNC(=O)[C@@H](N)CCC(=O)O)[C@@H](C)O)[C@@H](C)CC)C(=O)N[C@@H](C)C(=O)N[C@@H](CCSC)C(=O)N[C@@H](CC(=O)O)C(=O)N[C@@H](CCCCN)C(=O)N[C@H](C(=O)N[C@@H](CCCCNC(=O)CCCCCCCCCCCCCCC(=O)O)C(=O)N[C@@H](CCC(N)=O)C(=O)N[C@@H](CCC(N)=O)C(=O)N[C@@H](CC(=O)O)C(=O)N[C@@H](Cc1ccccc1)C(=O)N[C@H](C(=O)N[C@@H](CC(N)=O)C(=O)N[C@@H](Cc1c[nH]c2ccccc12)C(=O)N[C@@H](CC(C)C)C(=O)N[C@@H](CC(C)C)C(=O)N[C@@H](C)C(=O)N[C@@H](CCC(N)=O)C(=O)N[C@@H](CCCCN)C(=O)NCC(=O)N[C@@H](CCCCN)C(=O)N[C@@H](CCCCN)C(=O)N[C@@H](CC(N)=O)C(=O)N[C@@H](CC(=O)O)C(=O)N[C@@H](Cc1c[nH]c2ccccc12)C(=O)N[C@@H](CCCCN)C(=O)N[C@@H](Cc1c[nH]cn1)C(=O)N[C@@H](CC(N)=O)C(=O)N[C@H](C(=O)N[C@H](C(=O)O)[C@@H](C)O)[C@@H](C)CC)C(C)C)[C@@H](C)CC
B2: AT453 (peptide)
peptide: EGTFISDYSIAMDKIK(C16 diacid)QQDFVNWLLAQKGKKNDWKHNI-OH
modifications: N-terminus assumed
SMILES: CC[C@H](C)[C@H](NC(=O)[C@H](CC(N)=O)NC(=O)[C@H](Cc1c[nH]cn1)NC(=O)[C@H](CCCCN)NC(=O)[C@H](Cc1c[nH]c2ccccc12)NC(=O)[C@H](CC(=O)O)NC(=O)[C@H](CC(N)=O)NC(=O)[C@H](CCCCN)NC(=O)[C@H](CCCCN)NC(=O)CNC(=O)[C@H](CCCCN)NC(=O)[C@H](CCC(N)=O)NC(=O)[C@H](C)NC(=O)[C@H](CC(C)C)NC(=O)[C@H](CC(C)C)NC(=O)[C@H](Cc1c[nH]c2ccccc12)NC(=O)[C@H](CC(N)=O)NC(=O)[C@@H](NC(=O)[C@H](Cc1ccccc1)NC(=O)[C@H](CC(=O)O)NC(=O)[C@H](CCC(N)=O)NC(=O)[C@H](CCC(N)=O)NC(=O)[C@H](CCCCNC(=O)CCCCCCCCCCCCCCC(=O)O)NC(=O)[C@@H](NC(=O)[C@H](CCCCN)NC(=O)[C@H](CC(=O)O)NC(=O)[C@H](CCSC)NC(=O)[C@H](C)NC(=O)[C@@H](NC(=O)[C@H](CO)NC(=O)[C@H](Cc1ccc(O)cc1)NC(=O)[C@H](CC(=O)O)NC(=O)[C@H](CO)NC(=O)[C@@H](NC(=O)[C@H](Cc1ccccc1)NC(=O)[C@@H](NC(=O)CNC(=O)[C@@H](N)CCC(=O)O)[C@@H](C)O)[C@@H](C)CC)[C@@H](C)CC)[C@@H](C)CC)C(C)C)C(=O)O
B3: AT363 (peptide)
peptide: EGTFISDYSIAMDKIK(C16 diacid)QQDFVNWLLAQKGKKNDWKHNITQ-OH
modifications: N-terminus assumed
SMILES: CC[C@H](C)[C@H](NC(=O)[C@H](CO)NC(=O)[C@H](Cc1ccc(O)cc1)NC(=O)[C@H](CC(=O)O)NC(=O)[C@H](CO)NC(=O)[C@@H](NC(=O)[C@H](Cc1ccccc1)NC(=O)[C@@H](NC(=O)CNC(=O)[C@@H](N)CCC(=O)O)[C@@H](C)O)[C@@H](C)CC)C(=O)N[C@@H](C)C(=O)N[C@@H](CCSC)C(=O)N[C@@H](CC(=O)O)C(=O)N[C@@H](CCCCN)C(=O)N[C@H](C(=O)N[C@@H](CCCCNC(=O)CCCCCCCCCCCCCCC(=O)O)C(=O)N[C@@H](CCC(N)=O)C(=O)N[C@@H](CCC(N)=O)C(=O)N[C@@H](CC(=O)O)C(=O)N[C@@H](Cc1ccccc1)C(=O)N[C@H](C(=O)N[C@@H](CC(N)=O)C(=O)N[C@@H](Cc1c[nH]c2ccccc12)C(=O)N[C@@H](CC(C)C)C(=O)N[C@@H](CC(C)C)C(=O)N[C@@H](C)C(=O)N[C@@H](CCC(N)=O)C(=O)N[C@@H](CCCCN)C(=O)NCC(=O)N[C@@H](CCCCN)C(=O)N[C@@H](CCCCN)C(=O)N[C@@H](CC(N)=O)C(=O)N[C@@H](CC(=O)O)C(=O)N[C@@H](Cc1c[nH]c2ccccc12)C(=O)N[C@@H](CCCCN)C(=O)N[C@@H](Cc1c[nH]cn1)C(=O)N[C@@H](CC(N)=O)C(=O)N[C@H](C(=O)N[C@H](C(=O)N[C@@H](CCC(N)=O)C(=O)O)[C@@H](C)O)[C@@H](C)CC)C(C)C)[C@@H](C)CC
B4: AT365 (peptide)
peptide: TFISDYKIAMDKIHQQDFVNWLLAQKGKK
HELM: PEPTIDE1{T.F.I.S.D.Y.K.I.A.M.D.K.I.H.Q.Q.D.F.V.N.W.L.L.A.Q.K.G.K.K}|PEPTIDE2{[O=C(O)CCCCCCCCCCCCCCC(=O)[*:2]].[gGlu]}$PEPTIDE1,PEPTIDE2,7:R3-2:R2$$$V2.0; N-terminus assumed
SMILES: CC[C@H](C)[C@H](NC(=O)[C@H](CCCCNC(=O)CC[C@H](NC(=O)CCCCCCCCCCCCCCC(=O)O)C(=O)O)NC(=O)[C@H](Cc1ccc(O)cc1)NC(=O)[C@H](CC(=O)O)NC(=O)[C@H](CO)NC(=O)[C@@H](NC(=O)[C@H](Cc1ccccc1)NC(=O)[C@@H](N)[C@@H](C)O)[C@@H](C)CC)C(=O)N[C@@H](C)C(=O)N[C@@H](CCSC)C(=O)N[C@@H](CC(=O)O)C(=O)N[C@@H](CCCCN)C(=O)N[C@H](C(=O)N[C@@H](Cc1c[nH]cn1)C(=O)N[C@@H](CCC(N)=O)C(=O)N[C@@H](CCC(N)=O)C(=O)N[C@@H](CC(=O)O)C(=O)N[C@@H](Cc1ccccc1)C(=O)N[C@H](C(=O)N[C@@H](CC(N)=O)C(=O)N[C@@H](Cc1c[nH]c2ccccc12)C(=O)N[C@@H](CC(C)C)C(=O)N[C@@H](CC(C)C)C(=O)N[C@@H](C)C(=O)N[C@@H](CCC(N)=O)C(=O)N[C@@H](CCCCN)C(=O)NCC(=O)N[C@@H](CCCCN)C(=O)N[C@@H](CCCCN)C(=O)O)C(C)C)[C@@H](C)CC
B5: AT364 (peptide)
peptide: EGTFISDYSIAMDKIK(C16 diacid)QQDFVNWLLAQKGPSSGAPPPS-OH
modifications: N-terminus assumed
SMILES: CC[C@H](C)[C@H](NC(=O)[C@H](CO)NC(=O)[C@H](Cc1ccc(O)cc1)NC(=O)[C@H](CC(=O)O)NC(=O)[C@H](CO)NC(=O)[C@@H](NC(=O)[C@H](Cc1ccccc1)NC(=O)[C@@H](NC(=O)CNC(=O)[C@@H](N)CCC(=O)O)[C@@H](C)O)[C@@H](C)CC)C(=O)N[C@@H](C)C(=O)N[C@@H](CCSC)C(=O)N[C@@H](CC(=O)O)C(=O)N[C@@H](CCCCN)C(=O)N[C@H](C(=O)N[C@@H](CCCCNC(=O)CCCCCCCCCCCCCCC(=O)O)C(=O)N[C@@H](CCC(N)=O)C(=O)N[C@@H](CCC(N)=O)C(=O)N[C@@H](CC(=O)O)C(=O)N[C@@H](Cc1ccccc1)C(=O)N[C@H](C(=O)N[C@@H](CC(N)=O)C(=O)N[C@@H](Cc1c[nH]c2ccccc12)C(=O)N[C@@H](CC(C)C)C(=O)N[C@@H](CC(C)C)C(=O)N[C@@H](C)C(=O)N[C@@H](CCC(N)=O)C(=O)N[C@@H](CCCCN)C(=O)NCC(=O)N1CCC[C@H]1C(=O)N[C@@H](CO)C(=O)N[C@@H](CO)C(=O)NCC(=O)N[C@@H](C)C(=O)N1CCC[C@H]1C(=O)N1CCC[C@H]1C(=O)N1CCC[C@H]1C(=O)N[C@@H](CO)C(=O)O)C(C)C)[C@@H](C)CC

How the values were obtained:
human GIP receptor [1] = target: T1, human GIP receptor; assay: cell-based or functional assay
human GIP receptor [2] = target: T1, human GIP receptor; assay: cell-based or functional assay; remark: listed apart in the source

Binder	cAMP agonism % Emax (human GIP receptor [1]) [%]	cAMP antagonism (human GIP receptor [1]) [nM]	cAMP antagonism % inhib (human GIP receptor [1]) [%]	cAMP antagonism pIC50 (human GIP receptor [1])	cAMP agonism Emax (human GIP receptor [2])	cAMP antagonism (human GIP receptor [2]) [nM]	cAMP antagonism % inhib (human GIP receptor [2]) [%]	cAMP antagonism log (human GIP receptor [2]) [log M]
B1	0	6.81	84	8.2	8.9	54	82	-7.3
B2	0	6.31	95	8.2	6.1	57	65	-7.2
B3	0	12.6	90	7.9	7	5	82	-8.3
B4	0	13.6	100	7.9		6	100	-8.2
B5	0	13.8	87	7.9		1	100	-8.9

Reference: patent US20220298218A1 (ANTAG THERAPEUTICS, published 2022)
